B1: Products of pADV1176 (anti-C3 antibody expressed from plasmid pADV1176 in suspension HEK293 cells) (antibody, human IgG1, kappa, V domains shown)
VH: QVQLVQSGAEVKKPGASVKVSCKASGYTFTDFYMDWVRQAPGQRLEWMGYIYPHNAGTTYNQQFTGRVTITVDKSASTAYMELSSLRSEDTAVYYCARRGGFDFDYWGQGTLVTVSS
VL: DIQMTQSPSSLSASVGDRVTITCKASENVDTYVSWYQQKPGKAPKLLIYGASNRYTGVPSRFSGSGSGTDFTFTISSLQPEDIATYHCGQSHSYPLTFGQGTKLEIKR
notes: Full-length humanized human IgG1, tested as unpurified HEK293 supernatant at 0.015 mg/mL; Two copies of each chain is inferred from 'full-length' IgG1; also called humanized anti-C3 antibody; products of AAV2.7m8-pADV1176

Experiments:
[1] = biological target: T1, human complement C3 (Cat: C2910, Sigma) (human, UniProt P01024 23-1663); experiment: BLI (Octet HTX, 25 °C), human IgG1 in buffer against human complement C3
T1 construct: Bought protein; Native C3 is a two-chain (beta/alpha) protein processed from one precursor, so it is written here as one natural entry; also called Complement component 3
T1 sequence (P01024 23-1663 limits assumed): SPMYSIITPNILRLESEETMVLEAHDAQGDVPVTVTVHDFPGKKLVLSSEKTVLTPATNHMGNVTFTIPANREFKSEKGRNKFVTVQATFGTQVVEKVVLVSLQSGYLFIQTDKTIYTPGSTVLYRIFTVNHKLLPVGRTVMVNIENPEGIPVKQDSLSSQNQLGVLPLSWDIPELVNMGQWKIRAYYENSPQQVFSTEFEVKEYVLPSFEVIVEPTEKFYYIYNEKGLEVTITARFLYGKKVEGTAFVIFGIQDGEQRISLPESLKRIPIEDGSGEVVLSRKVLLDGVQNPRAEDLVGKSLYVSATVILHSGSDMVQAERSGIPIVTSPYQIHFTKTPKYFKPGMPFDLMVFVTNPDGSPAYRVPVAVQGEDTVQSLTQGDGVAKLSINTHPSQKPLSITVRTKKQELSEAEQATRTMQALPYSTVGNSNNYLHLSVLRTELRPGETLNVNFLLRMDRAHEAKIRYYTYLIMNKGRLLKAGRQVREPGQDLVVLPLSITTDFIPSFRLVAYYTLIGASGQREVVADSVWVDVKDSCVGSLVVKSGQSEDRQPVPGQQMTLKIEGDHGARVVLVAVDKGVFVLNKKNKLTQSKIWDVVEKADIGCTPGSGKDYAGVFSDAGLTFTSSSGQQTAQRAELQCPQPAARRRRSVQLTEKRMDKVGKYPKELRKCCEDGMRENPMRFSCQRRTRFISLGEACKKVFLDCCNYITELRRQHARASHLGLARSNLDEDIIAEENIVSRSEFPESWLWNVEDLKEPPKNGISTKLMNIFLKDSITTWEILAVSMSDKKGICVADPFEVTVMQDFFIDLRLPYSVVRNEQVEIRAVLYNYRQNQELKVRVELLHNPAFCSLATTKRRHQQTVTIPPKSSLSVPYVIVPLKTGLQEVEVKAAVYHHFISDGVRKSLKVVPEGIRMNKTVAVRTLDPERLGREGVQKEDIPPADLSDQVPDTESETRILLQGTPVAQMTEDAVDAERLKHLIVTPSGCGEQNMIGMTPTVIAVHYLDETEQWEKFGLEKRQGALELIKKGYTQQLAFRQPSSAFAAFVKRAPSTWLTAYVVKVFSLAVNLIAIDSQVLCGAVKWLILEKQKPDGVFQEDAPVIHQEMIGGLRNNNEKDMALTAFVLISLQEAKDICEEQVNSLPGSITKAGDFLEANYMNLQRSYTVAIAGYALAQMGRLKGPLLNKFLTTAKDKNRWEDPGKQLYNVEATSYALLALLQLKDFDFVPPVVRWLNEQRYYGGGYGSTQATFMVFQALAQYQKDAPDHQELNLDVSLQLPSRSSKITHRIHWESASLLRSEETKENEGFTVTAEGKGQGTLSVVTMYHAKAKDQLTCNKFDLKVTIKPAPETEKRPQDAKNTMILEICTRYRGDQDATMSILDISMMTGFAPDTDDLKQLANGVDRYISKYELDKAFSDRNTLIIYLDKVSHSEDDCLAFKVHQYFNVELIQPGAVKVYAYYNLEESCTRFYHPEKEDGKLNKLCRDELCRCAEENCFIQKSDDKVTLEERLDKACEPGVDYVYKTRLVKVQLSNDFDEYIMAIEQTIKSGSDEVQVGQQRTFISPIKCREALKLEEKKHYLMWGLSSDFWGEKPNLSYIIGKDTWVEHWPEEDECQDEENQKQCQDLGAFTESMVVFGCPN

[2] = biological target: T1, human complement C3 (Cat: C2910, Sigma); experiment: BLI (Octet HTX, 25 °C), HEK293 supernatant against human complement C3
Method: Supernatant from suspension HEK293 cells transfected with vector carrying gene encoding anti-C3 antibody (cell culture and transfection methods can be found in previous section) were used for kinetics analysis via Octet (BLI) to measure binding affinity to human complement C3 (Cat: C2910, Sigma). Binding experiments were performed on Octet HTX at 25° C. by LakePharma (Redwood City, CA). There were three test articles including products of pADV1176 (0.015 mg/mL), negative control (supernatant from untransfected cells) and positive control (human IgG1 in buffer—137 mM NaCl, 2.7 mM KCl, 10 mM Na₂HPO₄, 2 mM KH₂PO₄, pH 7.4, 0.98 mg/mL).

Molecule | Kd [1] [pM] | koff [1] [s⁻¹] | kon [1] [M⁻¹ s⁻¹] | Kd [2] [pM] | koff [2] [s⁻¹] | kon [2] [M⁻¹ s⁻¹]
Positive control (human IgG1 in buffer, 0.98 mg/mL) (antibody) | 256 | 4.92e-05 | 193000 | – | – | –
B1 | – | – | – | 130 | 2.67e-05 | 206000
